This passage reports Km and kcat/Km results from publication PMC3849214.

This series relates to c1ccc([C@H]2CO2)cc1. The series is described as follows: colorimetric periodate-coupled diol assay, A290, steady state. Type of series: biochemical, Streptomyces globisporus. To be noted: pH 8.0, 50 mM sodium phosphate, 25 °C, 3 mM sodium periodate.

By Km is commonly meant the substrate concentration at which the rate is half of its maximum. Usually kcat/Km stands for the second-order rate constant that governs catalysis at low substrate concentration. For the substance SgcF (Streptomyces globisporus; Q237M), the Km turned out to be 4.1 ± 0.8 mM and the specificity constant (kcat/Km) was 780 M⁻¹ s⁻¹.
